Data taken from PMC3236198.

Target: ΔC SSB (Escherichia coli) (UniProt P0AGE0)
Test: SEC

Substance: ΔC SSB (from UniProt P0AGE0 1-113) (domain or fragment)
- stoichiometry N: 4
